Assay [1] addresses Carbonic anhydrase II (bCAII), from bovine erythrocytes (bovine) (UniProt P00921). In words: SPR Biacore T100; bCAII immobilised on CM5.
Assay [2] has the same target. As to the kind of experiment: SPR KD of the biligand against fluorescence polarization KD of the anchor ligand.
Assay [3] has the same target. In words: SPR Biacore T100; bCAII immobilised on CM5, biligand as analyte 2 nM-5 µM, 1:1 fit.
Assay [4] shares this target. As to the kind of experiment: SPR Biacore T100; bCAII immobilised on CM5, branched biligand as analyte 0-1656 nM.
The target is the same in assay [5]. In words: dot blot; antigen spotted on nitrocellulose, biotinylated biligand anchor in 0.1% serum, streptavidin-HRP.
Assay [6] addresses human carbonic anhydrase II (hCAII) (human) (UniProt P00918). Described as above.
Assay [7] has as its target Carbonic anhydrase II (bCAII), from bovine erythrocytes (bovine) (UniProt P00921). In words: SPR KD of the biligands against fluorescence polarization KD of the anchor ligand.
The target is the same in assay [8]. As to the kind of experiment: SPR.
Assay [9] has the same target. As to the kind of experiment: SPR KD of the triligand against SPR KD of the biligand.
In assay [10] the target is human carbonic anhydrase II (hCAII) (human) (UniProt P00918). The assay is described as above.
For assay [11], the target named is Carbonic anhydrase II (bCAII), from bovine erythrocytes (bovine) (UniProt P00921). In words: SPR Biacore T100; bCAII immobilised on CM5, triligand as analyte 0.1-162 nM, 1:1 fit.
Chain of Carbonic anhydrase II (bCAII), from bovine erythrocytes (bovine) (P00921 2-260 limits assumed): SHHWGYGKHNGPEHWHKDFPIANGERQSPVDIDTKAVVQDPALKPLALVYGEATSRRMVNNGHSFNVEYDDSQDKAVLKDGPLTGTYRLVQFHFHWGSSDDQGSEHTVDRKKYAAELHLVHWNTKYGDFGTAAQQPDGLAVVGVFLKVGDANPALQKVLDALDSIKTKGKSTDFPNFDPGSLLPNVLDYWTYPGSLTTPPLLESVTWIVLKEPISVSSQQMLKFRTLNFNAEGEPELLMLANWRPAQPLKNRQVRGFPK
Assay [12] has as its target human carbonic anhydrase II (hCAII) (human) (UniProt P00918). As to the kind of experiment: SPR Biacore T100; hCAII immobilised on CM5, triligand as analyte 0.1-162 nM, 1:1 fit.
In assay [13] the target is Carbonic anhydrase II (bCAII), from bovine erythrocytes (bovine) (UniProt P00921). In words: fluorescence polarization; 6 µM FITC-peptide titrated with bCAII 0.2-800 µM in PBS + 3% DMSO.

The text below walks through data of US20100009896A1.

As for biligand kwlwGl-Tz1-kfwlkl (peptide), the results for the Kd in assay [1] and in [3] were 1000 nM and 3000 nM, respectively. The fold improvement of dissociation constant over anchor ligand lklwfk-(D-Pra) in [2] amounted to 150 fold.

As for “branched biligand capture agent vkw(Tz1)fw-kfwlkl (peptide)”, in [4], the Kd stood at 500 nM.

Take “biotinylated biligand anchor Biotin-(EG)5-(D-Pra)-kwlwGl-Tz1-kfwlkl (FIG. 14) (peptide)”: the fold reduction of dot blot sensitivity against the triligand in [5] and in assay [6] was 10 fold each time.

In the case of biligand lklwfk-Tz1-kiwiG (peptide), the Kd in [1] stood at 1000 nM; in assay [3] it was 11000 nM. Moreover, the fold affinity enhancement over anchor ligand in assay [7] worked out at 150 fold.

Regarding “triligand rfviln-Tz2-kwlwGl-Tz1-kfwlkl (peptide)”, the figures for the Kd in assay [8], in assay [11] and in assay [12] were 60 nM, 64 nM and 45 nM, respectively. Also, the fold affinity enhancement over biligand in assay [9] and in assay [10] was 50 fold each time.

On to “fluoresceinated anchor ligand lklwfk-(D-Pra) (peptide)”, for which the equilibrium dissociation constant (Kd) in assay [13] amounted to 500000 nM.
